Biological target: T1, recombinant human ROR1 extracellular domain (human, UniProt Q01973 30-406)
T1 construct: biotinylated for the filter lifts; also called huROR1-ECD; human ROR1-ECD
Experiment: ELISA, soluble Fab on coated huROR1-ECD
Experimental: The previously described filter lift assay provides a visual, qualitative assessment of antigen binding (Example 1). In order to assess the ROR1 binding activity of Ab1 Fab in a more quantitative fashion, an ELISA assay was developed. A 96-well Costar-3366 plate was coated with 50 μL/well of 1 μg/mL human ROR1-ECD (ACROBiosystems, cat. #RO1-H522y) in PBS overnight at 4° C. The plate was rinsed once with PBS-T and blocked with 100 μL/well of 5% M-P for 1 h at 25° C. Fab samples were serially diluted 3-fold using 5% M-P and 50 μL/well was incubated for 1 h at 25° C. The plate was washed three times with PBS-T and 50 μL/well anti-human kappa, and HRP conjugate (Southern Biotech, cat. #2060-05) diluted 10,000-fold in 5% M-P was added for 1 h at 25° C. In certain assays (extended wash format), the plate was placed in large volumes (up to 1 L) of PBS-T and incubated, with mixing, for 2-5 h prior to the addition of anti-human kappa, HRP conjugate. The plate was washed three times with PBS-T, and developed with 50 μL/well 1-Step Ultra TMB-ELISA (Thermo Scientific, cat. #34028). The reaction was terminated by the addition of 2 N H2504 and the A450 was determined using a Spectramax plate reader.

T1 sequence (Q01973 30-406 limits assumed): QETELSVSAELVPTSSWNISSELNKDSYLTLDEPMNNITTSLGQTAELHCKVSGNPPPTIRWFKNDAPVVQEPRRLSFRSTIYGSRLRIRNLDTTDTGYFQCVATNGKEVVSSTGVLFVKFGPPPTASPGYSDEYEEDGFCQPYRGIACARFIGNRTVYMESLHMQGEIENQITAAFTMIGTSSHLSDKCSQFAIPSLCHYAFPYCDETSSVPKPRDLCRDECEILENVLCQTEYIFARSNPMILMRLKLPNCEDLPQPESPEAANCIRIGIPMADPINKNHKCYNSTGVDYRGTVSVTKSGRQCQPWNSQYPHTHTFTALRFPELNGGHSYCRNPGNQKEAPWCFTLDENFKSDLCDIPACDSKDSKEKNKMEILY

Row | Binder | Kd [nM]
1 | Ab1 Fab variant H1 A30P (Fab, V domains shown, Fab) VH: QVQLQESGPGLVKPSQTLSLTCTVSGYPFTAYNIHWVRQAPGQGLEWMGSFDPYDGGSSYNQKFKDRLTISKDTSKNQVVLTMTNMDPVDTATYYCARGWYYFDYWGHGTLVTVSS VL: DIVMTQTPLSLPVTPGEPASISCRASKSISKYLAWYQQKPGQAPRLLIYSGSTLQSGIPPRFSGSGYGTDFTLTINNIESEDAAYYFCQQHDESPYTFGEGTKVEIK | 12
2 | Ab1 Fab variant H1 A33M (Fab, V domains shown, Fab) VH: QVQLQESGPGLVKPSQTLSLTCTVSGYAFTMYNIHWVRQAPGQGLEWMGSFDPYDGGSSYNQKFKDRLTISKDTSKNQVVLTMTNMDPVDTATYYCARGWYYFDYWGHGTLVTVSS VL: DIVMTQTPLSLPVTPGEPASISCRASKSISKYLAWYQQKPGQAPRLLIYSGSTLQSGIPPRFSGSGYGTDFTLTINNIESEDAAYYFCQQHDESPYTFGEGTKVEIK | 15
3 | Ab1 Fab variant H1 F31I (Fab, V domains shown, Fab) VH: QVQLQESGPGLVKPSQTLSLTCTVSGYAITAYNIHWVRQAPGQGLEWMGSFDPYDGGSSYNQKFKDRLTISKDTSKNQVVLTMTNMDPVDTATYYCARGWYYFDYWGHGTLVTVSS VL: DIVMTQTPLSLPVTPGEPASISCRASKSISKYLAWYQQKPGQAPRLLIYSGSTLQSGIPPRFSGSGYGTDFTLTINNIESEDAAYYFCQQHDESPYTFGEGTKVEIK | 5.8
4 | Ab1 Fab variant H1 A30T (Fab, V domains shown, Fab) VH: QVQLQESGPGLVKPSQTLSLTCTVSGYTFTAYNIHWVRQAPGQGLEWMGSFDPYDGGSSYNQKFKDRLTISKDTSKNQVVLTMTNMDPVDTATYYCARGWYYFDYWGHGTLVTVSS VL: DIVMTQTPLSLPVTPGEPASISCRASKSISKYLAWYQQKPGQAPRLLIYSGSTLQSGIPPRFSGSGYGTDFTLTINNIESEDAAYYFCQQHDESPYTFGEGTKVEIK | 16
5 | Ab1 Fab variant H1 F31V (Fab, V domains shown, Fab) VH: QVQLQESGPGLVKPSQTLSLTCTVSGYAVTAYNIHWVRQAPGQGLEWMGSFDPYDGGSSYNQKFKDRLTISKDTSKNQVVLTMTNMDPVDTATYYCARGWYYFDYWGHGTLVTVSS VL: DIVMTQTPLSLPVTPGEPASISCRASKSISKYLAWYQQKPGQAPRLLIYSGSTLQSGIPPRFSGSGYGTDFTLTINNIESEDAAYYFCQQHDESPYTFGEGTKVEIK | 8.3
6 | Ab1 Fab variant H1 G27N (Fab, V domains shown, Fab) VH: QVQLQESGPGLVKPSQTLSLTCTVSNYAFTAYNIHWVRQAPGQGLEWMGSFDPYDGGSSYNQKFKDRLTISKDTSKNQVVLTMTNMDPVDTATYYCARGWYYFDYWGHGTLVTVSS VL: DIVMTQTPLSLPVTPGEPASISCRASKSISKYLAWYQQKPGQAPRLLIYSGSTLQSGIPPRFSGSGYGTDFTLTINNIESEDAAYYFCQQHDESPYTFGEGTKVEIK | 8.4
7 | Ab1 Fab variant H1 A33S (Fab, V domains shown, Fab) VH: QVQLQESGPGLVKPSQTLSLTCTVSGYAFTSYNIHWVRQAPGQGLEWMGSFDPYDGGSSYNQKFKDRLTISKDTSKNQVVLTMTNMDPVDTATYYCARGWYYFDYWGHGTLVTVSS VL: DIVMTQTPLSLPVTPGEPASISCRASKSISKYLAWYQQKPGQAPRLLIYSGSTLQSGIPPRFSGSGYGTDFTLTINNIESEDAAYYFCQQHDESPYTFGEGTKVEIK | 11

The remaining lines, values ahead:

Row | Kd [nM] | Binder
8 | 1.8 | Ab1 Fab variant H2 D76V (Fab, V domains shown, Fab) VH: QVQLQESGPGLVKPSQTLSLTCTVSGYAFTAYNIHWVRQAPGQGLEWMGSFDPYDGGSSYNQKFKVRLTISKDTSKNQVVLTMTNMDPVDTATYYCARGWYYFDYWGHGTLVTVSS VL: DIVMTQTPLSLPVTPGEPASISCRASKSISKYLAWYQQKPGQAPRLLIYSGSTLQSGIPPRFSGSGYGTDFTLTINNIESEDAAYYFCQQHDESPYTFGEGTKVEIK
9 | 40 | Ab1 Fab variant H1 N40P (Fab, V domains shown, Fab) VH: QVQLQESGPGLVKPSQTLSLTCTVSGYAFTAYPIHWVRQAPGQGLEWMGSFDPYDGGSSYNQKFKDRLTISKDTSKNQVVLTMTNMDPVDTATYYCARGWYYFDYWGHGTLVTVSS VL: DIVMTQTPLSLPVTPGEPASISCRASKSISKYLAWYQQKPGQAPRLLIYSGSTLQSGIPPRFSGSGYGTDFTLTINNIESEDAAYYFCQQHDESPYTFGEGTKVEIK
10 | 0.9 | Ab1 Fab variant H2 F58V (Fab, V domains shown, Fab) VH: QVQLQESGPGLVKPSQTLSLTCTVSGYAFTAYNIHWVRQAPGQGLEWMGSVDPYDGGSSYNQKFKDRLTISKDTSKNQVVLTMTNMDPVDTATYYCARGWYYFDYWGHGTLVTVSS VL: DIVMTQTPLSLPVTPGEPASISCRASKSISKYLAWYQQKPGQAPRLLIYSGSTLQSGIPPRFSGSGYGTDFTLTINNIESEDAAYYFCQQHDESPYTFGEGTKVEIK
11 | 5.7 | Ab1 Fab variant H1 Y39F (Fab, V domains shown, Fab) VH: QVQLQESGPGLVKPSQTLSLTCTVSGYAFTAFNIHWVRQAPGQGLEWMGSFDPYDGGSSYNQKFKDRLTISKDTSKNQVVLTMTNMDPVDTATYYCARGWYYFDYWGHGTLVTVSS VL: DIVMTQTPLSLPVTPGEPASISCRASKSISKYLAWYQQKPGQAPRLLIYSGSTLQSGIPPRFSGSGYGTDFTLTINNIESEDAAYYFCQQHDESPYTFGEGTKVEIK
12 | 3.3 | Ab1 Fab variant H1 Y39W (Fab, V domains shown, Fab) VH: QVQLQESGPGLVKPSQTLSLTCTVSGYAFTAWNIHWVRQAPGQGLEWMGSFDPYDGGSSYNQKFKDRLTISKDTSKNQVVLTMTNMDPVDTATYYCARGWYYFDYWGHGTLVTVSS VL: DIVMTQTPLSLPVTPGEPASISCRASKSISKYLAWYQQKPGQAPRLLIYSGSTLQSGIPPRFSGSGYGTDFTLTINNIESEDAAYYFCQQHDESPYTFGEGTKVEIK
13 | 7.1 | Ab1 Fab variant H1 Y29G (Fab, V domains shown, Fab) VH: QVQLQESGPGLVKPSQTLSLTCTVSGGAFTAYNIHWVRQAPGQGLEWMGSFDPYDGGSSYNQKFKDRLTISKDTSKNQVVLTMTNMDPVDTATYYCARGWYYFDYWGHGTLVTVSS VL: DIVMTQTPLSLPVTPGEPASISCRASKSISKYLAWYQQKPGQAPRLLIYSGSTLQSGIPPRFSGSGYGTDFTLTINNIESEDAAYYFCQQHDESPYTFGEGTKVEIK
14 | 2.2 | Ab1 Fab variant H2 G66D (Fab, V domains shown, Fab) VH: QVQLQESGPGLVKPSQTLSLTCTVSGYAFTAYNIHWVRQAPGQGLEWMGSFDPYDDGSSYNQKFKDRLTISKDTSKNQVVLTMTNMDPVDTATYYCARGWYYFDYWGHGTLVTVSS VL: DIVMTQTPLSLPVTPGEPASISCRASKSISKYLAWYQQKPGQAPRLLIYSGSTLQSGIPPRFSGSGYGTDFTLTINNIESEDAAYYFCQQHDESPYTFGEGTKVEIK
15 | 4.9 | Ab1 Fab variant H2 D65E (Fab, V domains shown, Fab) VH: QVQLQESGPGLVKPSQTLSLTCTVSGYAFTAYNIHWVRQAPGQGLEWMGSFDPYEGGSSYNQKFKDRLTISKDTSKNQVVLTMTNMDPVDTATYYCARGWYYFDYWGHGTLVTVSS VL: DIVMTQTPLSLPVTPGEPASISCRASKSISKYLAWYQQKPGQAPRLLIYSGSTLQSGIPPRFSGSGYGTDFTLTINNIESEDAAYYFCQQHDESPYTFGEGTKVEIK
16 | 1.8 | Ab1 Fab variant H2 F58I (Fab, V domains shown, Fab) VH: QVQLQESGPGLVKPSQTLSLTCTVSGYAFTAYNIHWVRQAPGQGLEWMGSIDPYDGGSSYNQKFKDRLTISKDTSKNQVVLTMTNMDPVDTATYYCARGWYYFDYWGHGTLVTVSS VL: DIVMTQTPLSLPVTPGEPASISCRASKSISKYLAWYQQKPGQAPRLLIYSGSTLQSGIPPRFSGSGYGTDFTLTINNIESEDAAYYFCQQHDESPYTFGEGTKVEIK

Reference: patent US20230021388A1 (VELOSBIO, published 2023)
